Data: patent publication US20250320284A1 (AC IMMUNE, published 2025)

T1: mouse ASC (mouse, UniProt Q9EPB4 1-193)
T1 construct: recombinant mASC in ELISA and SPR; endogenous ASC of J774.A1 cells in Western blot and immunofluorescence; also called mASC
T1 sequence: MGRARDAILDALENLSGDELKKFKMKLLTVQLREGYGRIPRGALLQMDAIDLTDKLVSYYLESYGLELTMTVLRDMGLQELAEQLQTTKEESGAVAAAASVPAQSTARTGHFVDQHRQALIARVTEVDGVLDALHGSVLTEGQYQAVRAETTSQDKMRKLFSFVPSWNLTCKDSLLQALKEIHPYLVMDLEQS

T2: CARD domain of human ASC (human, UniProt Q9ULZ3 107-195)
T2 construct: biotinylated in BLI; also called hCARD; human CARD
T2 sequence: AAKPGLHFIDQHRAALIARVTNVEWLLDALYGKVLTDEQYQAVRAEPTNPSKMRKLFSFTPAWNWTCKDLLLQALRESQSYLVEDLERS


How the values were obtained:
[1] = target: T3, human ASC (apoptosis associated speck-like protein containing a caspase-recruitment domain) (human, UniProt Q9ULZ3 1-195); test: ELISA, coated hASC;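 also: antibody binding to plate-coated recombinant human ASC, read as phosphatase substrate absorbance, EC50 from four-parameter variable-slope fit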
T3 construct: recombinant hASC in ELISA and SPR; endogenous ASC (cytoplasmic or specks) in Western blot and immunofluorescence; also called hASC; PYCARD

PYD domain of human ASC [2] = target: T4, PYD domain of human ASC (human, UniProt Q9ULZ3 1-91, limits assumed); test: ELISA, coated hPYD;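 also: monoclonal antibody binding to plate-coated human ASC PYD measured by ELISA, with a phosphatase substrate absorbance read-out and EC50 from a variable slope curve fit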
T4 construct: biotinylated in BLI; His/MBP-tagged in the alanine ELISA; also called hPYD; human PYD
T4 sequence (Q9ULZ3 1-91 limits assumed): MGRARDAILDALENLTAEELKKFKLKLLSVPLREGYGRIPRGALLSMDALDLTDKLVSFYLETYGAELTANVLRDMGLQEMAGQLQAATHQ

mouse ASC [3] = target: T1, mouse ASC; test: ELISA, coated mASC
CARD domain of human ASC = target: T2, CARD domain of human ASC; test: ELISA, coated hCARD
[4] = target: T3, human ASC (apoptosis associated …); test: SPR affinity mode, mAb captured;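 also: Single-cycle SPR kinetics with mAbs captured on goat anti-mouse antibody, double-referenced against blank flow cell and buffer cycle, fitted by a 1:1 kinetic model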
[5] = target: T3, human ASC (apoptosis associated …); test: SPR avidity mode, ASC immobilized;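 also: Single-cycle SPR kinetics on Biacore T200, antibodies injected at 1.2–100 nM (3-fold steps), 300 s association, 900 s dissociation, double-referenced, 1:1 kinetic model fit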
[6] = target: T3, human ASC (apoptosis associated …); test: cell-based or functional assay
mouse ASC [7] = target: T1, mouse ASC; test: cell-based or functional assay
[8] = target: T3, human ASC (apoptosis associated …); test: cell-based or functional assay; remark: listed apart in the source
mouse ASC [9] = target: T1, mouse ASC; test: cell-based or functional assay; remark: listed apart in the source
mouse ASC [10] = target: T1, mouse ASC; test: SPR affinity mode, mAb captured;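 also: Single-cycle SPR kinetics with mAbs captured on goat anti-mouse antibody, double-referenced against blank flow cell and buffer cycle, fitted by a 1:1 kinetic model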
PYD domain of human ASC [11] = target: T4, PYD domain of human ASC; test: BLI binning on PYD, competitor 22D3A6-AB1
PYD domain of human ASC [12] = target: T4, PYD domain of human ASC; test: BLI binning on PYD, competitor 23E5F7-AB2
PYD domain of human ASC [13] = target: T4, PYD domain of human ASC; test: BLI binning on PYD, competitor 26A1G2-AB1
PYD domain of human ASC [14] = target: T4, PYD domain of human ASC; test: BLI binning on PYD, competitor 31F10C5-AB1
PYD domain of human ASC [15] = target: T4, PYD domain of human ASC; test: BLI binning on PYD, competitor 401H9B7-AB1
PYD domain of human ASC [16] = target: T4, PYD domain of human ASC; test: BLI binning on PYD, competitor 416E6G4-AB1
PYD domain of human ASC [17] = target: T4, PYD domain of human ASC; test: BLI binning on PYD, competitor 2610H7D3-AB1
PYD domain of human ASC [18] = target: T4, PYD domain of human ASC; test: BLI binning on PYD, competitor 2617C3A8-AB1
PYD domain of human ASC [19] = target: T4, PYD domain of human ASC; test: BLI binning on PYD, competitor 2626B9D3-AB1

Row | Binder | EC50 [1] | EC50 (PYD domain of human ASC [2]) | EC50 (mouse ASC [3]) | binding result (CARD domain of human ASC) | binding result (PYD domain of human ASC [2]) | binding result (mouse ASC [3]) | EC50 (CARD domain of human ASC) | Kd [4] | koff [4] | kon [4] | Kd [5] | koff [5] | kon [5] | further results
1 | ACI-8016-2516A8C6-AB1 (antibody, V domains shown) VH: QVQLQQSGAELARPGASVKLSCKASGHTFTSYGISWVKQRTGQGLEWIGKIYPRSGNTYYDEKFKGKATLTADKPSTTAYMELRSLTSEDSAVYFCATRDYWGQGTTLTVSS VL: QIVLTQSPVIMSASPGEKVTITCSASSSVSYMYWFQQKPGTSPKFWIYSTSNLASGVPARFSGSGSGTSYSLTISRMEAEDAATYYCQQRSRYPWTFGGGTKLEIK | 0.26 nM | 0.16 nM | 0.26 nM | no binding | – | – | – | – | – | – | – | – | – | –
2 | ACI-8016-7G3B5-AB1 (antibody, V domains shown, also called 936.7G3B5) VH: EVQLQQSVAELVRPGASVKLSCTASGFNIKNTYMHWVKQRPEQGLEWIGRIDPANGNTKYVPKFQGKATITADTSSKTAYLQLSSLTSEDTAIYYCTRWGFDKDGVVYAMDYWGQGTSVTVSS VL: DVVLTQSPATLSVTPGDSVSLSCRASQSIYNNLHWYQQKSHESPRLLVKYASQSISGIPSRFSGSGSGTDFTLSINSVETEDFGMYFCQQSNSWPLTFGAGTKLELK | 0.19 nM | 0.16 nM | 0.17 nM | no binding | – | – | – | – | – | – | – | – | – | –
3 | ACI-8016-27A1G4-AB1 (antibody, V domains shown, also called 936.27A1G4) VH: QVQLQQSDAELVKPGASVKISCKVSGYTFTDHTIHWMRQRPEQGLEWIGYIYPGDASSYYNEKFKGKATLTADQSSNTAYIQVNSLTSEDSAVYFCARPLYSYASYYWFAYWGQGTLVTVSA VL: DIQMNQSPSSLSASLGDTITITCHASQNINVWLTWYQQKPGNIPKLLIYKASNLHTDVPSRFSGSGSGTGFTLTISSLQPEDIATYYCQQGQSYPLTFGGGTKLEIK | 0.15 nM | – | 0.11 nM | – | no binding | – | 0.13 nM | – | – | – | – | – | – | –
4 | ACI-8016-31F10C5-AB1 (antibody, V domains shown, also called 936.31F10C5) VH: QVQLQQSEPELARPGASVKLSCTASGYTFINYGVSWVRQRTGQGLEWIGRIYPRSGNTRFNEKFQGKATLTADTSSSTAYMELRSLTSEDSAVYFCTRFPYAFSGNSYWYFDVWGTGTTVTVSS VL: DIVMTQSHKFMSTSIGDRVSITCKASQDVSAAVAWYQQKPGQSPKLLIYSSSFRYTGVPDRFTGSASGTDFTFTITTVQAEDLAVYYCQQHFDTPYTFGGGTKLEIK | 0.24 nM | 0.18 nM | 0.3 nM | no binding | – | – | – | 0.16 nM | 0.000199 s⁻¹ | 1.23e+06 M⁻¹ s⁻¹ | – | – | – | Human ASC polymerization assay, IC50 [6]: 6.3 nM; Mouse ASC polymerization assay, IC50 (mouse ASC [7]): 34.8 nM; IL-1β release, human monocytic cell line, IC50 [8]: 33 nM; % IL-1β inhibition, mouse primary microglia, 420 nM mAb (mouse ASC [9]): 90.5%; Kd (mouse ASC [10]): 0.36 nM; koff (mouse ASC [10]): 0.000314 s⁻¹; kon (mouse ASC [10]): 886000 M⁻¹ s⁻¹; normalized binding response (PYD domain of human ASC [11]): 3%; normalized binding response (PYD domain of human ASC [12]): 2%; normalized binding response (PYD domain of human ASC [13]): 0%; normalized binding response (PYD domain of human ASC [14]): 1%; normalized binding response (PYD domain of human ASC [15]): 79%; normalized binding response (PYD domain of human ASC [16]): 4%; normalized binding response (PYD domain of human ASC [17]): 2%; normalized binding response (PYD domain of human ASC [18]): 3%; normalized binding response (PYD domain of human ASC [19]): 49%
5 | ACI-8016-29C5E11-AB1 (antibody, V domains shown, also called 936.29C5E11) VH: EVQLQQSGAELVRPGSSVKMSCRTSGYTFTNNGITWVKQRPGQGLEWIGYIYVGNGYTEYNEKFKDKATLTSDTASSTVYMQLNSLTSEDSAIYFCARLDRGRALDYWAQGTTLTVSS VL: DIVLTQSPASLAVSLGQRATISCRASKSVSSSAYSYMHWYQQKPGQPPKLLIHLASNLESGVPARFSGSGSGTDFTLNIHPVEEEDAATYYCQHSWELPYTFGGGTKLEIK | 0.16 nM | – | 0.14 nM | – | no binding | – | 0.14 nM | – | – | – | – | – | – | –

These reach a lower EC50 [1]. Values come first.

Row | EC50 [1] | EC50 (PYD domain of human ASC [2]) | EC50 (mouse ASC [3]) | binding result (CARD domain of human ASC) | binding result (PYD domain of human ASC [2]) | binding result (mouse ASC [3]) | EC50 (CARD domain of human ASC) | Kd [4] | koff [4] | kon [4] | Kd [5] | koff [5] | kon [5] | Binder | further results
6 | 0.09 nM | 0.08 nM | – | no binding | – | no binding | – | 1.34 nM | 0.00017 s⁻¹ | 130000 M⁻¹ s⁻¹ | 0.35 nM | 2.9e-05 s⁻¹ | 83000 M⁻¹ s⁻¹ | ACI-8016-203G8B10-AB1 (antibody, V domains shown) VH: EVKLEESGGGLVHPGGSMKLSCVASGFTFSNYWMNWVRQSPEKGLEWVAQIRLKSENYATHSAESVKGRLTISRDDSKSSVYLQMNNLRAEDTGIYYCLAGWGLDYWGQGTTLTVSS VL: DIVMTQAAFSNPVTLGTSASISCRSSKTLLHSDGFTYLYWYLQRPGQSPQLLIHRVSNLASGVPNRFSGSESGTDFTLRISRVEPEDVGVYYCAQMLELPLTFGSGTKLELK | –
7 | 0.07 nM | 0.06 nM | – | no binding | – | – | – | 0.12 nM | 2.9e-05 s⁻¹ | 250000 M⁻¹ s⁻¹ | < 0.01 nM | 4.1e-07 s⁻¹ | 110000 M⁻¹ s⁻¹ | ACI-8016-417E12A8-AB1 (antibody, V domains shown) VH: QVQLQQPGAELVRPGASVILSCKASGYTFTSSWITWVKQRPGQGLEWIGNIYPSDSYTNSNQKFKDKATLTVDKSSSTAYMHLISPTSEDSAVYYCTRKDFVYDAWYFDVWGAGTTVTVSS VL: DIVMTQSQKFMSTSVGDRVTVTCKASQNVGTNVAWYQQRPGQSPKPLIYSASYRNSGVPDRFTGSGSGTDFTLTITNVQSEDLAEYFCQQYNNYPLTFGAGTKLELK | –
8 | 0.06 nM | – | – | – | no binding | no binding | 0.06 nM | 0.55 nM | 0.00019 s⁻¹ | 360000 M⁻¹ s⁻¹ | 10.5 nM | – | – | ACI-8016-402H11C9-Ab1 (antibody, V domains shown) VH: QVQLQQSGAELARPGASVKMSCKASGYTFTTYTMHWVKQRPGQGLEWIGYINPSSGYTYYNQNFKDKATLTADKSSSTAYMQLSNLASDDSAVYYCALGGNPAWFAYWGQGTLVTVSA VL: DIVLTQSPATLSVTPGDSVSLSCRASQSIGNNLHWYQHKSHESPRLLIKYASQSISGIPSRFSGSESGTDFTLSINSVETEDFGIYFCQQSKSWPWTFGGGTKLEIK | –
9 | 0.06 nM | – | – | – | no binding | no binding | 0.07 nM | 0.11 nM | 1.5e-05 s⁻¹ | 130000 M⁻¹ s⁻¹ | < 0.01 nM | 5.6e-07 s⁻¹ | 110000 M⁻¹ s⁻¹ | ACI-8016-407E10A9-AB1 (antibody, V domains shown) VH: EVQLVESGGGFVKPGGSLKLSCAASGFTFSNYAMSWVRQTPEKRLEWVATIYSGGIFTYYPDSVKGRFTISRDSAKNTLYLQMTSLRSEDTAIYYCARLGGSYWGQGTLVTVSA VL: QAVVTQESALTTSPGETVTLTCRSSTGAVTTNNYANWVQEKPDHFFTGLIGGTDNRPPGVPARFSGSLIGDKAALTITGAQTEDEAIYFCALWYNNHWVFGGGTKLTVL | –
10 | 0.06 nM | 0.07 nM | – | no binding | – | – | – | 0.36 nM | 0.00017 s⁻¹ | 470000 M⁻¹ s⁻¹ | < 0.01 nM | 2.2e-07 s⁻¹ | 190000 M⁻¹ s⁻¹ | ACI-8016-421B10C12D2-AB1 (antibody, V domains shown) VH: EVQLQQSGADLVKPGASVKLSCTASGFNIEDTYIHWVKQRPARGLEWVGRIDPANGNTDYDPKFQGKATMITDTSSNTVYLQVSSLTSEDTAVYFCGRHDGYDMDYWGQGTSVTVSS VL: DIVMSQSPSSLAVSAGEKVTMSCQSSQSLLNGRTRRNYLAWYQQKPGQSPKLLIYWASTRKSGVPDRFTGSGSGTDFTLTITSVQAEDLAVYYCKQSYNLVTFGAGTKLELK | –
